Consider 1 sequence from publication PMC11705820.

Changes are numbered by the printed parent chain.

Data set [1] concerns the target T1, MexR Gln55Pro Q55P (Pseudomonas aeruginosa clinical isolate Pae d14 Green) (UniProt P52003).
T1 sequence: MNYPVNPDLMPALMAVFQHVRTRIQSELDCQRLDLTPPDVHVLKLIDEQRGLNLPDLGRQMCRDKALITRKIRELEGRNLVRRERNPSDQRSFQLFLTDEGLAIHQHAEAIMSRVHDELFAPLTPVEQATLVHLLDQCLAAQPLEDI
In words: EMSA.

For data set [2], the target named is T2, MexR wild-type (Pseudomonas aeruginosa clinical isolate Pae d1 Green) (UniProt P52003).
T2 sequence: T1 sequence with P55Q
As to the kind of experiment: EMSA. A general note: A gel shift assay detects complexes by their altered migration in electrophoresis.

Take “GTTGCATAGCGTTGTCCTCATGAGCGAAAGCGGCCGATGCAGCGTGAAGGCGCTGCACCGGCTCGAAGAAGGCAGGCAAAATACTTACATTCATAGGTGTTTGTAAACGTCCGAAAGCCTCGCGTGAAAACACCTGAAACGTTTTAGCTCGATGGCCGGTTATCCACCCGGCGCCATGGCCCATATTCAGAACCTGAAACAAGGTTGATAAGGTCAACTAAAATAAGCAAAATAGTTGACTGGATCAACCACATTTACATTAGGTTTACTCGGCCAAACCAATGAACTACC (double strand) [mexR-mexAB intergenic region 291 bp]”: the binding entry in data set [1] was “no binding”; in data set [2] it was “binds”.
